Assay results: paper PMC12130793, “A conserved aspartate residue in [4Fe-4S]-containing HypD is required for [NiFe]-cofactor biosynthesis and for efficient interaction of the HypCD scaffold complex with HypE” (Metallomics: Integrated Biometal Science, 2025)
Numbering of substitutions follows the chain as printed. Numbers in names are those of the source.

B1: HypD (native, untagged) (natural protein, E. coli, UniProt P24192 1-373, looked up)
chain: MRFVDEYRAPEQVMQLIEHLRERASHLSYTAERPLRIMEVCGGHTHAIFKFGLDQLLPENVEFIHGPGCPVCVLPMGRIDTCVEIASHPEVIFCTFGDAMRVPGKQGSLLQAKARGADVRIVYSPMDALKLAQENPTRKVVFFGLGFETTMPTTAITLQQAKARDVQNFYFFCQHITLIPTLRSLLEQPDNGIDAFLAPGHVSMVIGTDAYNFIASDFHRPLVVAGFEPLDLLQGVVMLVQQKIAAHSKVENQYRRVVPDAGNLLAQQAIADVFCVNGDSEWRGLGVIESSGVHLTPDYQRFDAEAHFRPAPQQVCDDPRARCGEVLTGKCKPHQCPLFGNTCNPQTAFGALMVSSEGACAAWYQYRQQESEA
notes: Carries a [4Fe-4S] cluster; also called native HypD; WT HypD; source: E. coli BL21(DE3), co-expressed with HypC-Strep (phypDC) or with HypE, HypF and HybG-Strep (phypDEF-hybG); co-purified anaerobically
B2: HypD_(D98A) (untagged) (natural protein, E. coli, UniProt P24192 1-373, looked up)
chain: B1 chain with D98A
notes: HypD of E. coli with the D98A exchange, without a tag; source: co-purified anaerobically
B3: HypC bearing a C-terminal StrepII-tag (natural protein, E. coli, UniProt P0AAM3 1-90, looked up)
chain: MCIGVPGQIRTIDGNQAKVDVCGIQRDVDLTLVGSCDENGQPRVGQWVLVHVGFAMSVINEAEARDTLDALQNMFDVEPDVGALLYGEEK
notes: HypC, hydrogenase maturation factor of E. coli; native HypC; also called HypC-Strep; Strep-tagged HypC; source: E. coli BL21(DE3) transformed with phypDC or phypD_(D98A)hypC, purified anaerobically (Strep tag); not shown: StrepII, C-terminal, kept

How the values were obtained:
[1] = target: B3; assay: native MS; anaerobically purified HypC-Strep/HypD complexes buffer-exchanged into 500 mM ammonium acetate, pH 6.8, about 10 uM; nano-ESI Q-TOF; MS/MS with collision-induced dissociation (90 V) of the +12 charge state of the heterodimer; settings: both partners purified
HypD_(D98A) (untagged) = target: B2; assay: pull-down; co-purification from BL21(DE3) cells by the StrepII tag (on HypD, HypC or HybG) under anoxic conditions; 5 ug of isolated protein on SDS-PAGE, immunoblot with anti-HypD or anti-HypE antiserum (1:1000); settings: partners not purified
HypD (native, untagged) = target: B1; assay: as above; settings: partners not purified

stoichiometry N [1]	binding result (HypD_(D98A) (untagged))	binding result (HypD (native, untagged))	Binder
1 ratio HypC:HypD	–	–	B1
1 ratio HypC:HypD	–	–	B2
–	binds	binds	B3
